Test results published in patent publication US20040091985A1, “NAD phosphite oxidoreductase, a novel catalyst from bacteria for regeneration of NAD(P)H” (priority 2002, published 2004).
Several values for one entry are separate records, joined by “and”; a condition that tells them apart may be missing. Identical values can stand only once.

Substrate: NC(=O)c1ccc[n+]([C@@H]2O[C@H](COP(=O)([O-])OP(=O)(O)OC[C@H]3O[C@@H](n4cnc5c(N)ncnc54)[C@H](O)[C@@H]3O)[C@@H](O)[C@H]2O)c1
Assay: purified protein, by the assay type
Settings: pH 7.25, 30.0 °C

B1: PtxD (Stutzerimonas stutzeri) (protein)
chain: MLPKLVITHRVHDEILQLLAPHCELMTNQTDSTLTREEILRRCRDAQAMMAFMPDRVDADFLQACPELRVVGCALKGFDNFDVDACTARGVWLTFVPDLLTVPTAELAIGLAVGLGRHLRAADAFVRSGEFQGWQPQFYGTGLDNATVGILGMGAIGLAMADRLQGWGATLQYHEAKALDTQTEQRLGLRQVACSELFASSDFILLALPLNADTQHLVNAELLALVRPGALLVNPCRGSVVDEAAVLAALERGQLGGYAADVFEMEDWARADRPRLIDPALLAHPNTLFTPHIGSAVRAVRLEIERCAAQNIIQVLAGARPINAANRLPKAEPAAC
Km (other: Table 4, NAP as A, fit to Equilibrium ordered mechanism): 4520 µM | Km (other: Table 4, NAP as A, fit to Pingpong mechanism): 12800 µM | Km (other: substrates of PtxD): 54.6 ± 6.7 µM and 50 µM
